Here are results for 6 variants from IntAct's records for PubMed 19411703.

B1: Phospholipid-transporting ATPase DRS2 (Saccharomyces cerevisiae), P39524 (parent)
chain: MNDDRETPPKRKPGEDDTLFDIDFLDDTTSHSGSRSKVTNSHANANYIPPSHVLPEETIDLDADDDNIENDVHENLFMSNNHDDQTSWNANRFDSDAYQPQSLRAVKPPGLFARFGNGLKNAFTFKRKKGPESFEMNHYNAVTNNELDDNYLDSRNKFNIKILFNRYILRKNVGDAEGNGEPRVIHINDSLANSSFGYSDNHISTTKYNFATFLPKFLFQEFSKYANLFFLCTSAIQQVPHVSPTNRYTTIGTLLVVLIVSAMKECIEDIKRANSDKELNNSTAEIFSEAHDDFVEKRWIDIRVGDIIRVKSEEPIPADTIILSSSEPEGLCYIETANLDGETNLKIKQSRVETAKFIDVKTLKNMNGKVVSEQPNSSLYTYEGTMTLNDRQIPLSPDQMILRGATLRNTAWIFGLVIFTGHETKLLRNATATPIKRTAVEKIINRQIIALFTVLIVLILISSIGNVIMSTADAKHLSYLYLEGTNKAGLFFKDFLTFWILFSNLVPISLFVTVELIKYYQAFMIGSDLDLYYEKTDTPTVVRTSSLVEELGQIEYIFSDKTGTLTRNIMEFKSCSIAGHCYIDKIPEDKTATVEDGIEVGYRKFDDLKKKLNDPSDEDSPIINDFLTLLATCHTVIPEFQSDGSIKYQAASPDEGALVQGGADLGYKFIIRKPNSVTVLLEETGEEKEYQLLNICEFNSTRKRMSAIFRFPDGSIKLFCKGADTVILERLDDEANQYVEATMRHLEDYASEGLRTLCLAMRDISEGEYEEWNSIYNEAATTLDNRAEKLDEAANLIEKNLILIGATAIEDKLQDGVPETIHTLQEAGIKIWVLTGDRQETAINIGMSCRLLSEDMNLLIINEETRDDTERNLLEKINALNEHQLSTHDMNTLALVIDGKSLGFALEPELEDYLLTVAKLCKAVICCRVSPLQKALVVKMVKRKSSSLLLAIGDGANDVSMIQAAHVGVGISGMEGMQAARSADIAVGQFKFLKKLLLVHGSWSYQRISVAILYSFYKNTALYMTQFWYVFANAFSGQSIMESWTMSFYNLFFTVWPPFVIGVFDQFVSSRLLERYPQLYKLGQKGQFFSVYIFWGWIINGFFHSAIVFIGTILIYRYGFALNMHGELADHWSWGVTVYTTSVIIVLGKAALVTNQWTKFTLIAIPGSLLFWLIFFPIYASIFPHANISREYYGVVKHTYGSGVFWLTLIVLPIFALVRDFLWKYYKRMYEPETYHVIQEMQKYNISDSRPHVQQFQNAIRKVRQVQRMKKQRGFAFSQAEEGGQEKIVRMYDTTQKRGKYGELQDASANPFNDNNGLGSNDFESAEPFIENPFADGNQNSNRFSSSRDDISFDI
partner: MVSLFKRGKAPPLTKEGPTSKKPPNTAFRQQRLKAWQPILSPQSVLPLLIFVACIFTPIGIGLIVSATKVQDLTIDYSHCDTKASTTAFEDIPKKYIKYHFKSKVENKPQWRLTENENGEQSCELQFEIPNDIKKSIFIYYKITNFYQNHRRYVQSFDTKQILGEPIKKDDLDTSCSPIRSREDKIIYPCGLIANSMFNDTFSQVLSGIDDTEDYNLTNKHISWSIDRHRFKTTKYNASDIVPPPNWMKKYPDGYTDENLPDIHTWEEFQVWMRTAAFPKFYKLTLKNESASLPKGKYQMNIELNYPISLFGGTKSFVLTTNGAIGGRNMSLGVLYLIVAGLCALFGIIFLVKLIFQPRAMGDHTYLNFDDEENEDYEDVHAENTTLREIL
B2: Phospholipid-transporting ATPase DNF1 (Saccharomyces cerevisiae), P32660 (parent)
chain: MSGTFHGDGHAPMSPFEDTFQFEDNSSNEDTHIAPTHFDDGATSNKYSRPQVSFNDETPKNKREDAEEFTFNDDTEYDNHSFQPTPKLNNGSGTFDDVELDNDSGEPHTNYDGMKRFRMGTKRNKKGNPIMGRSKTLKWARKNIPNPFEDFTKDDIDPGAINRAQELRTVYYNMPLPKDMIDEEGNPIMQYPRNKIRTTKYTPLTFLPKNILFQFHNFANVYFLVLIILGAFQIFGVTNPGLSAVPLVVIVIITAIKDAIEDSRRTVLDLEVNNTKTHILEGVENENVSTDNISLWRRFKKANSRLLFKFIQYCKEHLTEEGKKKRMQRKRHELRVQKTVGTSGPRSSLDSIDSYRVSADYGRPSLDYDNLEQGAGEANIVDRSLPPRTDCKFAKNYWKGVKVGDIVRIHNNDEIPADIILLSTSDTDGACYVETKNLDGETNLKVRQSLKCTNTIRTSKDIARTKFWIESEGPHSNLYTYQGNMKWRNLADGEIRNEPITINNVLLRGCTLRNTKWAMGVVMFTGGDTKIMLNSGITPTKKSRISRELNFSVVINFVLLFILCFVSGIANGVYYDKKGRSRFSYEFGTIAGSAATNGFVSFWVAVILYQSLVPISLYISVEIIKTAQAAFIYGDVLLYNAKLDYPCTPKSWNISDDLGQVEYIFSDKTGTLTQNVMEFKKCTINGVSYGRAYTEALAGLRKRQGIDVETEGRREKAEIAKDRDTMIDELRALSGNSQFYPEEVTFVSKEFVRDLKGASGEVQQRCCEHFMLALALCHSVLVEANPDNPKKLDLKAQSPDEAALVATARDVGFSFVGKTKKGLIIEMQGIQKEFEILNILEFNSSRKRMSCIVKIPGLNPGDEPRALLICKGADSIIYSRLSRQSGSNSEAILEKTALHLEQYATEGLRTLCIAQRELSWSEYEKWNEKYDIAAASLANREDELEVVADSIERELILLGGTAIEDRLQDGVPDCIELLAEAGIKLWVLTGDKVETAINIGFSCNLLNNEMELLVIKTTGDDVKEFGSEPSEIVDALLSKYLKEYFNLTGSEEEIFEAKKDHEFPKGNYAIVIDGDALKLALYGEDIRRKFLLLCKNCRAVLCCRVSPSQKAAVVKLVKDSLDVMTLAIGDGSNDVAMIQSADVGIGIAGEEGRQAVMCSDYAIGQFRYLARLVLVHGRWSYKRLAEMIPEFFYKNMIFALALFWYGIYNDFDGSYLYEYTYMMFYNLAFTSLPVIFLGILDQDVNDTISLVVPQLYRVGILRKEWNQRKFLWYMLDGLYQSIICFFFPYLVYHKNMIVTSNGLGLDHRYFVGVYVTTIAVISCNTYVLLHQYRWDWFSGLFIALSCLVVFAWTGIWSSAIASREFFKAAARIYGAPSFWAVFFVAVLFCLLPRFTYDSFQKFFYPTDVEIVREMWQHGHFDHYPPGYDPTDPNRPKVTKAGQHGEKIIEGIALSDNLGGSNYSRDSVVTEEIPMTFMHGEDGSPSGYQKQETWMTSPKETQDLLQSPQFQQAQTFGRGPSTNVRSSLDRTREQMIATNQLDNRYSVERARTSLDLPGVTNAASLIGTQQNN
partner: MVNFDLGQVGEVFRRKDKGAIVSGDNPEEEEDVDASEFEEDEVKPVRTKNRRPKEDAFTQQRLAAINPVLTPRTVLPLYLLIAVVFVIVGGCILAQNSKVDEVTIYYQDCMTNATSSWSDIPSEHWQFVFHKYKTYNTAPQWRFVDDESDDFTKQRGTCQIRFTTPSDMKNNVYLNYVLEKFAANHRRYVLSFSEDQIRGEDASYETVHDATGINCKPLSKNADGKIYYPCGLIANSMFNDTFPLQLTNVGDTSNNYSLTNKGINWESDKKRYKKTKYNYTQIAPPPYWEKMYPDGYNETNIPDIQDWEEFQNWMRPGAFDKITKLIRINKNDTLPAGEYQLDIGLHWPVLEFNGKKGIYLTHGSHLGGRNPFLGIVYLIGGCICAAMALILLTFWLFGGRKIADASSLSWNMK

In one experiment the parent is B1. The following applies: with cdc50_yeast CDC50, P25656.
Consider D560N, for which the “effect of a mutation on the interaction” value is on record as “decreasing interaction strength”.

The variants in a further experiment derive from B1. Particulars: with cdc50_yeast CDC50, P25656. This is another data set of the same source.
In the case of D560E, the “effect of a mutation on the interaction” value is recorded as “decreasing interaction strength”.

On to E342Q, for which the “effect of a mutation on the interaction” value is reported as “with no effect”.

On to G341L, for which the “effect of a mutation on the interaction” value was “decreasing interaction strength”.

In another experiment the parent is B2. The following applies: with lem3_yeast LEM3, P42838.
As to D667E, the “effect of a mutation on the interaction” value is recorded as “disrupting interaction strength”.

For the variant D667N, the “effect of a mutation on the interaction” value is recorded as “disrupting interaction strength”.
